Measurements: US7081343

Molecular target: T7-RelA, Q04206
Sequence (Q04206 whole entry): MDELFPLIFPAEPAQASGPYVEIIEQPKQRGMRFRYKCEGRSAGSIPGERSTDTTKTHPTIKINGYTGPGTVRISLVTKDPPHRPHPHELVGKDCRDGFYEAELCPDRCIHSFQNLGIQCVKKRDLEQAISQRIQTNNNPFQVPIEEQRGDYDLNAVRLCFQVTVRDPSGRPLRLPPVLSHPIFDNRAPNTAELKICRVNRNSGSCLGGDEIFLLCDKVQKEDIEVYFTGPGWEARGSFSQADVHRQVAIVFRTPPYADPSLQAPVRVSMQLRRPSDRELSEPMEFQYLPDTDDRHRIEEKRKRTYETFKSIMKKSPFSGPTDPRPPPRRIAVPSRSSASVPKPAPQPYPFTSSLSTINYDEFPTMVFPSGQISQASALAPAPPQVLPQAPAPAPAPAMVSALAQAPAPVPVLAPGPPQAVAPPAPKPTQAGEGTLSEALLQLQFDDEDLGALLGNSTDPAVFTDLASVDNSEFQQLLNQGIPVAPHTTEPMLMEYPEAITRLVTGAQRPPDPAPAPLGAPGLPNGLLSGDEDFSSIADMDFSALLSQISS

B1: P/CAF (protein)
chain: MSEAGGAGPGGCGAGAGAGAGPGALPPQPAALPPAPPQGSPCAAAAGGSGACGPATAVAAAGTAEGPGGGGSARIAVKKAQLRSAPRAKKLEKLGVYSACKAEESCKCNGWKNPNPSPTPPRADLQQIIVSLTESCRSCSHALAAHVSHLENVSEEEMNRLLGIVLDVEYLFTCVHKEEDADTKQVYFYLFKLLRKSILQRGKPVVEGSLEKKPPFEKPSIEQGVNNFVQYKFSHLPAKERQTIVELAKMFLNRINYWHLEAPSQRRLRSPNDDISGYKENYTRWLCYCNVPQFCDSLPRYETTQVFGRTLLRSVFTVMRRQLLEQARQEKDKLPLEKRTLILTHFPKFLSMLEEEVYSQNSPIWDQDFLSASSRTSQLGIQTVINPPPVAGTISYNSTSSSLEQPNAGSSSPACKASSGLEANPGEKRKMTDSHVLEEAKKPRVMGDIPMELINEVMSTITDPAAMLGPETNFLSAHSARDEAARLEERRGVIEFHVVGNSLNQKPNKKILMWLVGLQNVFSHQLPRMPKEYITRLVFDPKHKTLALIKDGRVIGGICFRMFPSQGFTEIVFCAVTSNEQVKGYGTHLMNHLKEYHIKHDILNFLTYADEYAIGYFKKQGFSKEIKIPKTKYVGYIKDYEGATLMGCELNPRIPYTEFSVIIKKQKEIIKKLIERKQAQIRKVYPGLSCFKDGVRQIPIESIPGIRETGWKPSGKEKSKEPRDPDQLYSTLKSILQQVKSHQSAWPFMEPVKRTEAPGYYEVIRFPMDLKTMSERLKNRYYVSKKLFMADLQRVFTNCKEYNPPESEYYKCANILEKFFFSKIKEAGLIDK
  acetylation of T7-RelA (anti-T7 immunoprecipitation, anti-acetylated lysine blot): P/CAF failed to mediate this response
